Data reported in article PMC7841142.
Several values for one entry are separate records, joined by “and”; a condition that tells them apart may be missing. Identical values can stand only once.

T1: Fgfr1a-IIIc, membrane-bound, Myc- and 6x His-tagged (complete coding sequence), on CHO-K1 cells (zebrafish), Q90Z00
T1 chain: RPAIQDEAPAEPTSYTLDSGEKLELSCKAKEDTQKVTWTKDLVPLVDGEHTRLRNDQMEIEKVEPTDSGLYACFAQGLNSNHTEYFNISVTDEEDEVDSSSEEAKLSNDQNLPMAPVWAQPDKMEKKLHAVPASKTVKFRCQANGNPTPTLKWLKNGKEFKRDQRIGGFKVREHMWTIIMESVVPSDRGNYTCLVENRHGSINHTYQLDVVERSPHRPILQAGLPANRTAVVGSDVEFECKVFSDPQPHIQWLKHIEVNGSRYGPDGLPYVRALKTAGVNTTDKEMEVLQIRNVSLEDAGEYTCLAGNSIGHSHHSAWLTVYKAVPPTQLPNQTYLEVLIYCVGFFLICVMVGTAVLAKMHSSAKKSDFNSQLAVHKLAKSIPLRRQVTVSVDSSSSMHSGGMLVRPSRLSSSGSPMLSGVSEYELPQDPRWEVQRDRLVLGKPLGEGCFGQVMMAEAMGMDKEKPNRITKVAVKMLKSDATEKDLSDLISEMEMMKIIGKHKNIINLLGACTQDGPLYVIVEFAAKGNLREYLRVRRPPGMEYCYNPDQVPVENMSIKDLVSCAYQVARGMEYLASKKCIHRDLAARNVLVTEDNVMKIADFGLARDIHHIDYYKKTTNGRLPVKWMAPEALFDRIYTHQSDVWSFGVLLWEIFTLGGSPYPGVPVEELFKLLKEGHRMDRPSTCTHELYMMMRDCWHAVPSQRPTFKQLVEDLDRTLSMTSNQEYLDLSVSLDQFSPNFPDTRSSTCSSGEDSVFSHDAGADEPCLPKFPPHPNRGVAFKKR


Legend:
[1] = target: Ncam1b, Myc- and 6x His-tagged (complete coding sequence), in Hek293 cells (zebrafish); assay: co-IP; Hek293 cells co-transfected with Myc/His-tagged Ncam1a or Ncam1b and FLAG-tagged Fgfr1a-IIIb or -IIIc; lysates precipitated with anti-His antibody and ProteinA beads, blotted with biotinylated FLAG-antibody; band density by Fiji, three independent experiments
[2] = target: Ncam1a, Myc- and 6x His-tagged (complete coding sequence), in Hek293 cells (zebrafish); assay: as above
Chain of Ncam1a, Myc- and 6x His-tagged (complete coding sequence), in Hek293 cells (zebrafish) (main, as listed by the source): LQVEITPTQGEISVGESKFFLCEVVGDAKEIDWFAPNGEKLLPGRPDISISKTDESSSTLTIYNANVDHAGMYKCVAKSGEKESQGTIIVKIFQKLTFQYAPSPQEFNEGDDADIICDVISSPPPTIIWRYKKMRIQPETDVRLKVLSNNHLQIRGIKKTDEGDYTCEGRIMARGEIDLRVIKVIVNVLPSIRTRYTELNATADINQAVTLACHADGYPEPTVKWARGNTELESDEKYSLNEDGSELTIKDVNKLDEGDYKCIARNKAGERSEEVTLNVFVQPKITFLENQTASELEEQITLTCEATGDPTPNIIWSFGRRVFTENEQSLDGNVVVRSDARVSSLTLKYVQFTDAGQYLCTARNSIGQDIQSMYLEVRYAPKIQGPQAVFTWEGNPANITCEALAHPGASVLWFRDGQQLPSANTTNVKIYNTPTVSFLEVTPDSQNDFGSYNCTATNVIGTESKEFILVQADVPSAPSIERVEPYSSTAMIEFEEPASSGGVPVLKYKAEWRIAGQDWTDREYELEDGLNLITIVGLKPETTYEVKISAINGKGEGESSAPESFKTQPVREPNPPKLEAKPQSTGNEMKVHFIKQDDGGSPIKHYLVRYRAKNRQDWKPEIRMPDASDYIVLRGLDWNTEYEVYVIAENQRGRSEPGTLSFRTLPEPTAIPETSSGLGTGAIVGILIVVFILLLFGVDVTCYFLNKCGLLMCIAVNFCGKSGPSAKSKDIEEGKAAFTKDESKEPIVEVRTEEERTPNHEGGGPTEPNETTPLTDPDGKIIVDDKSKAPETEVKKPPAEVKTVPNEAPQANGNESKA

[3] = target: Ncam1b, membrane-bound, Myc- and 6x His-tagged (complete coding sequence), on CHO-K1 cells (zebrafish); assay: immunostaining of cells or tissue; cell overlay assay: transfected CHO-K1 cells (membrane-bound His-tagged protein) on fibronectin-coated coverslips incubated with 20 μg/ml soluble Fc-tagged protein for 1 h at room temperature, washed, fixed, stained with anti-His and anti-hFcγ; read out as binding coefficient (percent of transfected cells co-labelled) and as fluorescence intensity of transfected vs. untransfected cells
[4] = target: Fgfr1a-IIIb, membrane-bound, Myc- and 6x His-tagged (complete coding sequence, exon 9.1 variant), on CHO-K1 cells (zebrafish); assay: as above
[5] = target: T1, Fgfr1a-IIIc, membrane-bound, Myc- and …; assay: immunostaining of cells or tissue; cell overlay assay: transfected CHO-K1 cells (membrane-bound His-tagged protein) on fibronectin-coated coverslips incubated with 20 μg/ml soluble Fc-tagged protein for 1 h at room temperature, washed, fixed, stained with anti-His and anti-hFcγ; read out as binding coefficient (percent of transfected cells co-labelled) and as fluorescence intensity of transfected vs. untransfected …

Molecule | band density (Intensity Density) of co-precipitated FLAG-tagged receptor (Intensity Density) [1] | band density (Intensity Density) of co-precipitated FLAG-tagged receptor (Intensity Density) [2] | binding coefficient (percent of transfected cells co-labelled for the soluble partner) [3] [%] | also measured
Fgfr1a-IIIb, FLAG-tagged (complete coding sequence), in Hek293 cells (receptor) | 170000 and 203000 | 89500 |  | 
Fgfr1a-IIIc, FLAG-tagged (complete coding sequence), in Hek293 cells (from UniProt Q90Z00 27-810) (receptor) | 138000 | 117000 |  | 
soluble Fgfr1a-IIIb-Fc (extracellular part of Fgfr1a-IIIb with hIgG-Fc-Tag) (Fc fusion) |  |  | 90 | 
soluble Fgfr1a-IIIc-Fc (extracellular part of Fgfr1a-IIIc with hIgG-Fc-Tag) (from UniProt Q90Z00 27-363) (Fc fusion) |  |  | 60 | 
soluble Ncam1b-Fc (extracellular part of Ncam1b with hIgG-Fc-Tag) (Fc fusion) |  |  |  | binding coefficient (percent of transfected cells co-labelled for the soluble partner) [4]: 90%; fluorescence intensity of bound soluble Ncam1b, transfected over untransfected cells [4]: 80 % higher
soluble Ncam1b-Fc (extracellular part of Ncam1b with hIgG-Fc-Tag) (Fc fusion, modifications not checked) LQVDITPAHGEISVGESRFFLCEVIGGAKEIDWFAPAGEKIEPGRPDISVIRNDETSSTLTIYNAKVDNAGTYRCVASSGDQDAEATVNLKIYQKITFTNVPSPQEFTEGDNAIIVCDVISSPPPTVLWKYKGAKIQFDKDVRFKTLSNNHLQIRGIRKTDEGVYTCEGRIKARGEVDFRSIKVVVNVLPTIRIRQAETNATADMGFSTLLACDPDGFPEPIVTWRRNNAPLESGNKYSFNEDGSEMTVLDVTKLDEGDYTCIAKNKAGESEQELSLKVFVQPKITYLESQTTTEMDEQVTLTCEATGDPTPTITWSFGTRVFTEGEQASWTRPEQHKGPDGEVLVRSDARVSSLTLKYPQYTDAGQYLCTARNAIGETVQPVSLEVRYAPKILGSVAVYTWEGNPANISCEVLAHPSDVSITWLRDGFQLPNANTSNIKIHNTPSASYLEVNPESQSDFGNYNCTASNEIGTESREFIMIPADVPSAPSIGEVQPYSSTAQVLFEEPESTGGVPVLKYRAEWRAVGRGKWVQRVYEVKDGLSSVTVTGLKPETDYEVKMSAINGKGEGDSSPSMVFKTEHVQGEPSPPILEGTLQPKGNSLKVKWIKQDDGGSPITHYLVRYKAREDSEWKPEIRLPSGSEYVMLIGLDWDTEYDVFVVAENQQGKSKPGTLTFRTSSEPTATTDSMEDGPGLNTG |  |  |  | binding coefficient (percent of transfected cells co-labelled for the soluble partner) [5]: 60%
